Measurements reported in the supplement of paper PMC12042874.
± gives the uncertainty stated by the source.

Test: amyloid nucleation score (Sup35N fusion, yeast selection) (log enrichment); library NNK2; higher = more nucleation; inactive = no reads after selection
Method in brief: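 Peptides of 20 random codons, each fused to Sup35N, were expressed in psi-negative yeast. Cells were induced with 100 μM copper sulfate for 24 hours and grown 7 days at 30°C on medium lacking adenine and uracil, and plasmid inserts before and after selection were Illumina-sequenced. Nucleation scores are DiMSum log enrichments of output over input reads, centred on the mode score of non-aggregating sequences, and sequences under 100 input reads were excluded.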

| Substance | amyloid nucleation score |
| --- | --- |
| MNSFQTRGSVPRRNPKIRAS | 0.998 ± 0.74 |
| MPHPLLLSFEENLIDCLYDH | -0.693 ± 0.64 |
| MPYALIR | -0.821 ± 0.35 |
| MQMLIYGWSMCFILGAQV | 0.479 ± 0.74 |
| MQNANLIQTFEGYIYPMDIQ | 0.433 ± 0.74 |
| MRCDTVMKSSYASVASMGL | inactive |
| MRDRMVAAARLFRGVSRLAF | -0.268 ± 0.48 |
| MRFPGSGGRCLMTFLRLEWV | 0.329 ± 0.28 |
| MRLEWNRGLLCDDSYARTAR | 0.83 ± 0.41 |
| MRLHSLGRCGQWSCDVGRER | 0.918 ± 0.35 |
| MRQWEQNSCYDLPAYLWNVG | -0.079 ± 0.56 |
| MRSNWYGNVCVVTSNCDGLG | 0.837 ± 0.48 |
| MRSYIQFVFCGDCRFFNWVI | 6.298 ± 0.05 |
| MRWLYFPLF | -0.801 ± 0.56 |
| MSAYR | -0.018 ± 0.65 |
| MSCSSIRLFQDSIRLCRTSR | -0.02 ± 0.32 |
| MSGFTFKTLGGISHYDFQLD | inactive |
| MSGYVVFDMALKTRELMPAS | 1.87 ± 0.48 |
| MSLLYGS | 0.523 ± 0.64 |
| MSLPRSPAWGV | 0.863 ± 0.27 |
| MSMLPCGSVYFNTRNAYLWL | 6.678 ± 0.065 |
| MSRSSPMIHFETCWHASAGF | 3.82 ± 0.044 |

| Substance | amyloid nucleation score |
| --- | --- |
| MSSHSTCRGVGINGLMVFVL | 8.073 ± 0.057 |
| MSTLRRLRSRNRRFVNFVWG | -0.019 ± 0.33 |
| MTCRMCGADCPLA | 0.539 ± 0.66 |
| MTTALDGSLYVWCQCAVDVI | 0.379 ± 0.54 |
| MTVASCSTGCHD | 0.084 ± 0.54 |
| MVGNSNAPARVLCTVSKFGV | 0.587 ± 0.33 |
| MVLDIFAS | 1.19 ± 0.44 |
| MVLYKSRNRLSNYHRLAEST | -0.326 ± 1.1 |
| MVNYDDMANGS | 0.465 ± 0.8 |
| MVPCWRFQSMC | 0.961 ± 0.81 |
| MVSLIPEMHFNVMLEKVACA | 0.562 ± 0.81 |
| MVSSIGILASWYTSIVWFGY | -0.191 ± 1.1 |
| MVYNQCRSDL | -1.04 ± 0.23 |
| MWRAQFIYLRMQLVVACVGI | 0.394 ± 0.33 |
| MYIGELIAPVCCLRSQFTPC | 5.18 ± 0.075 |
| MYKGA | 0.595 ± 0.62 |
| MYKIF | inactive |
| MYLGH | -0.864 ± 1.1 |
| MYLLVV | 0.786 ± 0.41 |
| MYLVRIR | 0.316 ± 0.42 |
| MYNENRLLSSFNSVCCMLWG | 9.787 ± 0.078 |
| MYNQC | 0.271 ± 0.44 |

| Substance | amyloid nucleation score |
| --- | --- |
| MYRCQSSVFIFGSYSPILCH | -0.303 ± 0.63 |
| MYRIDD | 6.83 ± 0.088 |
| MYRVEGL | inactive |
| MYVRYANDFVLLIMQVYRCF | -0.488 ± 1 |
| MYYYSFSDTTLWEISPQLAT | -0.582 ± 1.1 |
| NADGYSLMQRSNFSQSNGYL | inactive |
| NARFSFKTLRYGGVLRKYPL | -0.363 ± 1.1 |
| NARQSLADSSAVRPDARTLI | 0.456 ± 0.45 |
| NATLSSFYSLGNEMHSGHSV | -0.209 ± 0.48 |
| NAVEIERNLLQIFQLLNSGE | -0.739 ± 0.64 |
| NCESQVVDMYITIRLFVLWV | 0.202 ± 0.18 |
| NCKYVVTMMLTSGLCAENIW | -0.81 ± 1 |
| NCQYFMRGFSVISSTFGMLS | -0.395 ± 0.76 |
| NCRRMFGYNHCSHLCPLRVW | -0.653 ± 1.1 |
| NCWISIYNMFLLRRRMMGMG | -0.611 ± 0.63 |
| NCWYTFTL | 1.45 ± 0.12 |
| NDGIFDSTRVVETMCLRSSP | -0.129 ± 1.1 |
| NDGLSILVASNMCLSFAWAW | 5.109 ± 0.04 |
| NDGVWKLFPLYLTPRSTFLL | 0.895 ± 0.81 |
| NDHVVVAHTFYLCDRNVDEM | 0.483 ± 0.4 |
| NDKFCATDESVRSRSI | 0.042 ± 0.37 |
| NDLARSFRV | -1.13 ± 1.1 |

| Substance | amyloid nucleation score |
| --- | --- |
| NDSFSFDSRCVVDRFGVAKK | -0.612 ± 0.76 |
| NDSNIRINNFFGNFTFGREL | 7.485 ± 0.041 |
| NDVAKYACDKHSGNYGYSQG | 0.011 ± 1.1 |
| NEHCVNAGSRWMDGCVSCWY | 3.58 ± 0.082 |
| NEHMIHIKSDLRYSAESKPY | 0.503 ± 0.18 |
| NEIASEYSYRPLLRGWSS | -0.119 ± 0.4 |
| NEMGFSHISGEMCAP | -0.882 ± 0.24 |
| NENKGNF | -0.947 ± 0.54 |
| NEQIW | 0.023 ± 0.39 |
| NERRT | 0.995 ± 0.53 |
| NEVTRAWSEFPYFMVSRHMT | 0.813 ± 0.47 |
| NFCLVNLEWMRWSNLTDGLQ | 5.34 ± 0.055 |
| NFEHVASLIFGLLILDSQSL | -1.43 ± 0.49 |
| NFFSTISQVMRYILFHSKVD | -1.54 ± 0.54 |
| NFIRDSMVTCRYEKDLGA | 0.713 ± 0.8 |
| NFKWVVAVMG | 0.789 ± 0.2 |
| NFLLSL | 0.322 ± 0.47 |
| NFMNSP | -0.33 ± 1.1 |
| NFRGGFWPVNMNTRLIWSGV | -1.52 ± 0.62 |
| NFRRLVMGSRNYSLFCGDKE | inactive |
| NFRSVFFAMCRSCVF | -0.145 ± 0.25 |
